Test results as given in IntAct's records for PubMed 18354482.

B1: RE1-silencing transcription factor (Homo sapiens), Q13127 (parent)
chain: MATQVMGQSSGGGGLFTSSGNIGMALPNDMYDLHDLSKAELAAPQLIMLANVALTGEVNGSCCDYLVGEERQMAELMPVGDNNFSDSEEGEGLEESADIKGEPHGLENMELRSLELSVVEPQPVFEASGAPDIYSSNKDLPPETPGAEDKGKSSKTKPFRCKPCQYEAESEEQFVHHIRVHSAKKFFVEESAEKQAKARESGSSTAEEGDFSKGPIRCDRCGYNTNRYDHYTAHLKHHTRAGDNERVYKCIICTYTTVSEYHWRKHLRNHFPRKVYTCGKCNYFSDRKNNYVQHVRTHTGERPYKCELCPYSSSQKTHLTRHMRTHSGEKPFKCDQCSYVASNQHEVTRHARQVHNGPKPLNCPHCDYKTADRSNFKKHVELHVNPRQFNCPVCDYAASKKCNLQYHFKSKHPTCPNKTMDVSKVKLKKTKKREADLPDNITNEKTEIEQTKIKGDVAGKKNEKSVKAEKRDVSKEKKPSNNVSVIQVTTRTRKSVTEVKEMDVHTGSNSEKFSKTKKSKRKLEVDSHSLHGPVNDEESSTKKKKKVESKSKNNSQEVPKGDSKVEENKKQNTCMKKSTKKKTLKNKSSKKSSKPPQKEPVEKGSAQMDPPQMGPAPTEAVQKGPVQVEPPPPMEHAQMEGAQIRPAPDEPVQMEVVQEGPAQKELLPPVEPAQMVGAQIVLAHMELPPPMETAQTEVAQMGPAPMEPAQMEVAQVESAPMQVVQKEPVQMELSPPMEVVQKEPVQIELSPPMEVVQKEPVKIELSPPIEVVQKEPVQMELSPPMGVVQKEPAQREPPPPREPPLHMEPISKKPPLRKDKKEKSNMQSERARKEQVLIEVGLVPVKDSWLLKESVSTEDLSPPSPPLPKENLREEASGDQKLLNTGEGNKEAPLQKVGAEEADESLPGLAANINESTHISSSGQNLNTPEGETLNGKHQTDSIVCEMKMDTDQNTRENLTGINSTVEEPVSPMLPPSAVEEREAVSKTALASPPATMAANESQEIDEDEGIHSHEGSDLSDNMSEGSDDSGLHGARPVPQESSRKNAKEALAVKAAKGDFVCIFCDRSFRKGKDYSKHLNRHLVNVYYLEEAAQGQE

Variants of: B1
Conditions: with fbw1a_human BTRC

Effect of a mutation on the interaction, disrupting interaction strength:
S1013A
E1009A;S1013A
E1009A
